Paper PMC10393190 (Genes & Development, 2022)
Where two headings read alike, the source gives them in different places.

Tests used:
Mer2 [1] = target: T1, Mer2 (Saccharomyces cerevisiae, UniProt P21651 1-314); experiment: EMSA
T1 sequence: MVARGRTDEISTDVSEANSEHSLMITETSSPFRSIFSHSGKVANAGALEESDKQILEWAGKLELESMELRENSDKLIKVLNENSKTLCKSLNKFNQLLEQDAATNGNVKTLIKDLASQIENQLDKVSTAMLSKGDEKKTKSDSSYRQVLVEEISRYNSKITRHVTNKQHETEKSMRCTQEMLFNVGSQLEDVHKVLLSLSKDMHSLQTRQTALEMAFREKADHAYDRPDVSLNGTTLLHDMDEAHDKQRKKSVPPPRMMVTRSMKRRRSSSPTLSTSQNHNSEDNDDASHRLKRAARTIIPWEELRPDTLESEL

Rec114;Mei4 [2] = target: T2, Rec114;Mei4 (Saccharomyces cerevisiae;Saccharomyces …, UniProt P32841;P29467 1-428;1-408, |); experiment: competition
T2 sequence 1: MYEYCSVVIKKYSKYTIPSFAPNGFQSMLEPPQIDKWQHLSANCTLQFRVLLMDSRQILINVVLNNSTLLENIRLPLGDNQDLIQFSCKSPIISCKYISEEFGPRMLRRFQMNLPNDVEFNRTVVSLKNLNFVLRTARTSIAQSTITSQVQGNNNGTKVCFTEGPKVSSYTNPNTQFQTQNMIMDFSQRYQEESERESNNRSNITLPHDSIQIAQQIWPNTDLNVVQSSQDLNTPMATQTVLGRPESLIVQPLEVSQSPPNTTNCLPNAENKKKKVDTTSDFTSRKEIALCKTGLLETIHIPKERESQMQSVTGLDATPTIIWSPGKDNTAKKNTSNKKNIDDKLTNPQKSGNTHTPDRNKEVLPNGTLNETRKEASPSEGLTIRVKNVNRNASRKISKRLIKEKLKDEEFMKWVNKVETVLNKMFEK
T2 sequence 2: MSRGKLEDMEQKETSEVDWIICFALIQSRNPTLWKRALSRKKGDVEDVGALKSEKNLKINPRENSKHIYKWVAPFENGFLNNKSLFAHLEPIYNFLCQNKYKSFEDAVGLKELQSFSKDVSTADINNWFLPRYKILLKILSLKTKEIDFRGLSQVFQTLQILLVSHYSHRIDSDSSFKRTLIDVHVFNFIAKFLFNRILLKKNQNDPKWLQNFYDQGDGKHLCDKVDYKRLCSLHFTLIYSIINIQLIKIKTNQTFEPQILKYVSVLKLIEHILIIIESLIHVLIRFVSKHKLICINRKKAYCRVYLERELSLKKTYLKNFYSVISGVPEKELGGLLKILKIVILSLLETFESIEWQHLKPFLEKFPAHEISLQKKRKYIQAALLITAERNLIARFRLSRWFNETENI

Mer2 [3] = target: T1, Mer2; experiment: EMSA; remark: listed apart in the source
REC114;MEI4 [4] = target: T3, REC114;MEI4 (Mus musculus;Mus musculus, UniProt Q9CWH4;Q8BRM6 1-259;1-389, |); experiment: competition
T3 sequence 1: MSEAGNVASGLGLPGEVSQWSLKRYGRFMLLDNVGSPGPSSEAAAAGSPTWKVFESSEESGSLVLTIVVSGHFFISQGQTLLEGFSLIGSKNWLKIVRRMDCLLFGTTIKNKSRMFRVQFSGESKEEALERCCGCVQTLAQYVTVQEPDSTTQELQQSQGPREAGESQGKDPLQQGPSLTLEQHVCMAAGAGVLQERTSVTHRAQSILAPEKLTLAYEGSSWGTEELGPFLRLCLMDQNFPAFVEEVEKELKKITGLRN
T3 sequence 2: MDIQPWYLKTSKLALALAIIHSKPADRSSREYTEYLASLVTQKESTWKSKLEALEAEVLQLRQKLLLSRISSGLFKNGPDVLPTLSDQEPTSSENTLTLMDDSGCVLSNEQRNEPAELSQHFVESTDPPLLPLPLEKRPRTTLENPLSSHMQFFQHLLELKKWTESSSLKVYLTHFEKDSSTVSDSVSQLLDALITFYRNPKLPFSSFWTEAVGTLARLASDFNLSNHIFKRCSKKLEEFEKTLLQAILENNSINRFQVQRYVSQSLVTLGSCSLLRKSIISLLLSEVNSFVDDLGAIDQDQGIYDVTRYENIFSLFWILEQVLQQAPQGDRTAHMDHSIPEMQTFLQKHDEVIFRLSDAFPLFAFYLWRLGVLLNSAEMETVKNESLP

Rec15 coiled-coil domain = target: T4, Rec15 coiled-coil domain (Schizosaccharomyces pombe, UniProt Q09094 1-160); experiment: competition
T4 sequence: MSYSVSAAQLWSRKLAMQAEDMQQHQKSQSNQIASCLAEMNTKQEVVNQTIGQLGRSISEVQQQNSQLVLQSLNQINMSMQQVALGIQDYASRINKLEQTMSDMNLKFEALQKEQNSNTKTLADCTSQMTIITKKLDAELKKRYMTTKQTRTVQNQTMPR

IHO1 coiled-coil domain = target: T5, IHO1 coiled-coil domain (Mus musculus, UniProt Q6PDM4 109-267); experiment: competition
T5 sequence: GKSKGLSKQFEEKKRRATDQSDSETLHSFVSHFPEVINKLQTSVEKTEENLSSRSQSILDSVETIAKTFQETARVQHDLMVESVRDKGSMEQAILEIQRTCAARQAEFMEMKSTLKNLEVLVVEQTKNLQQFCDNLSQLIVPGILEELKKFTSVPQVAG

Mer2 [5] = target: T1, Mer2; experiment: EMSA; remark: listed apart in the source
Mer2 [6] = target: T1, Mer2; experiment: EMSA; remark: listed apart in the source
Mer2 [7] = target: T1, Mer2; experiment: EMSA; remark: listed apart in the source

B1: HJ20 (cb922/cb923/cb924/cb925) (structured_DNA)
DNA 1: CAACGTGGGCAAAGATGTCCTAGCAATGTAATCGTCTATG
DNA 2: ATTCTACCAGTGCCAGTGATGGACATCTTTGCCCACGTTG
DNA 3: ATCCTCTAGACAGCTCCATGATCACTGGCACTGGTAGAAT
DNA 4: CATAGACGATTACATTGCTACATGGAGCTGTCTAGAGGAT
- apparent K (half saturation) (Mer2 [1]): 23.9 ± 2.9 nM

B2: HJ40 (cb095/cb096/cb097/cb098) (structured_DNA)
DNA 1: CTAGTATAGAGCCGGCGCGCCATGTCTAGATAGCGTTAGGTCTGCCGAATAGTACTACTCGGATCCCGAGCGAACCACGC
DNA 2: GCGTGGTTCGCTCGGGATCCGAGTAGTACTATTCGGCAGAGGATTCGAATAGGCCTAATCGAATTCCGCCATCGATGCAC
DNA 3: GTGCATCGATGGCGGAATTCGATTAGGCCTATTCGAATCCAGACGCGAGTAGATCTTCACGGTACCCGCGGTTACCCGTG
DNA 4: CACGGGTAACCGCGGGTACCGTGAAGATCTACTCGCGTCTCCTAACGCTATCTAGACATGGCGCGCCGGCTCTATACTAG
- binding signal (Rec114;Mei4 [2]): ~10 fold better competitor than dsDNA
- apparent K (half saturation) (Mer2 [3]): 9.2 ± 1 nM
- binding signal (REC114;MEI4 [4]): > 20 fold higher affinity than dsDNA
- binding result (Rec15 coiled-coil domain): binds
- binding result (IHO1 coiled-coil domain): binds

B3: dsDNA 80 bp (cb095/cb100) (dsDNA)
DNA 1: CTAGTATAGAGCCGGCGCGCCATGTCTAGATAGCGTTAGGTCTGCCGAATAGTACTACTCGGATCCCGAGCGAACCACGC
DNA 2: GCGTGGTTCGCTCGGGATCCGAGTAGTACTATTCGGCAGACCTAACGCTATCTAGACATGGCGCGCCGGCTCTATACTAG
- apparent K (half saturation) (Mer2 [5]): 36.8 ± 13.3 nM

B4: 3' flaps (cb095/cb098/cb122) (structured_DNA)
DNA 1: CTAGTATAGAGCCGGCGCGCCATGTCTAGATAGCGTTAGGTCTGCCGAATAGTACTACTCGGATCCCGAGCGAACCACGC
DNA 2: CACGGGTAACCGCGGGTACCGTGAAGATCTACTCGCGTCTCCTAACGCTATCTAGACATGGCGCGCCGGCTCTATACTAG
DNA 3: AGACGCGAGTAGATCTTCACGGTACCCGCGGTTACCCGTG
- apparent K (half saturation) (Mer2 [6]): 34.4 ± 25.2 nM

B5: Fork (cb095/cb098/cb122/cb120) (structured_DNA)
DNA 1: CTAGTATAGAGCCGGCGCGCCATGTCTAGATAGCGTTAGGTCTGCCGAATAGTACTACTCGGATCCCGAGCGAACCACGC
DNA 2: CACGGGTAACCGCGGGTACCGTGAAGATCTACTCGCGTCTCCTAACGCTATCTAGACATGGCGCGCCGGCTCTATACTAG
DNA 3: AGACGCGAGTAGATCTTCACGGTACCCGCGGTTACCCGTG
DNA 4: GCGTGGTTCGCTCGGGATCCGAGTAGTACTATTCGGCAGA
- apparent K (half saturation) (Mer2 [7]): 24.4 ± 5.5 nM
